# Measured values: patent US20050074822A1
# Target: MHC class I (human)
# Test: cell-based or functional assay
substance,measurement,value
"monoclonal antibody to MHC class I (w6/32 without sodium azide, Cat. No. 16-9983, e-Bioscience, Inc.)","IFN-γ production (ELISPOT, PBMC stimulated with CMV pp65 peptide …), percent inhibited, 2 µl W6/32",27 to 42%
same,"IFN-γ production (ELISPOT, PBMC stimulated with CMV pp65 peptide …), percent inhibited, 10 µl W6/32",58 to 71%
